Reference: US20140363441A1 (priority 2013, published 2014)
Residue numbers refer to the chain shown, from its start. “And” between values parts separate entries of the source, which are not always exact repeats. Equal entries are not always repeated. “Also recorded” adds a separate entry of the source.

B1: 3244_H04 (antibody, V domains shown)
VH: EVQLVESGGGLVQPGGSLRLSCTASGLSVSSTYMNWVRQAPGKGLEWVSVFYSETRTYYADSVKGRFTVSRHNSNNTLYLQMNSLRAEDTAVYYCARVQRLSYGMDVWGQGTTVTVSS
VL: DIQMTQSPSSLSASVGDRVTITCRASQSISTYLNWYQKRPGKAPKLLVYGASSLQSGVPSRFSGSGSGTDFTLTIASLQPEDSAVYYCQQTYSIPLFGQGTRLEIK
B2: 3245_O19 (antibody, V domains shown)
VH: B1 VH with A87V
VL: B1 VL with S53T, V85T
B3: 23K12 (TCN-031) (antibody, V domains shown)
VH: EVQLVESGGGLVQPGGSLRISCAASGFTVSSNYMSWVRQAPGKGLEWVSVIYSGGSTYYADSVKGRFSFSRDNSKNTVFLQMNSLRAEDTAVYYCARCLSRMRGYGLDVWGQGTTVTVS
VL: DIQMTQSPSSLSASVGDRVTITCRTSQSISSYLNWYQQKPGKAPKLLIYAASSLQSGVPSRFSGSGSGTDFTLTISGLQPEDFATYYCQQSYSMPAFGQGTKLEIK
B4: 3136_G05 (antibody, V domains shown)
VH: QVQLQESGPGLVKPSETLSLTCSVSGGSISSDFWSWIRQPPGKGLEWIGYVYNRGSTKYSPSLKSRVTISADMSKNQFSLNMSSVTAADTAVYYCAKNGRSSTSWGIDVWGKGTTVTVSS
VL: DIQMTQSPSSLSASVGDRLTITCRASQSISTYLHWYQQKPGKAPKLLIYAASSLQSGVPSRFSGSRSGTDFTLTISSLQPDDFATYYCQQSYSPPLTFGPGTKVDMK
B5: 8I10 (TCN-032) (antibody, V domains shown)
VH: QVQLQESGPGLVKPSETLSLTCTVSGSSISNYYWSWIRQSPGKGLEWIGFIYYGGNTKYNPSLKSRVTISQDTSKSQVSLTMSSVTAAESAVYFCARASCSGGYCILDYWGQGTLVTVS
VL: DIQMTQSPSSLSASVGDRVTITCRASQNIYKYLNWYQQRPGKAPKGLISAASGLQSGVPSRFSGSGSGTDFTLTITSLQPEDFATYYCQQSYSPPLTFGGGTRVEIK
B6: 3253_P10 (antibody, V domains shown)
VH: QVQLQESGPGLLKPSDTLALTCTVSGGSITSDYWSWIRQPPGRGLDWIGFFYNGGSTKYNPSLKSRVTISADTSKNQLSLKLTSVTAADTGVYYCARHDAKFSGSYYVASWGQGTRVTVSS
VL: DIQMTQSPSSLSASVGDRVTISCRASQSISTYLNWYQQQPGKAPKVLISGATDLQSGVPSRFSGSGSGTDFTLTISSLQPEDFATYYCQQSYNTPLIFGQGTKLEIK
B7: 3243_J07 (antibody, V domains shown)
VH: B6 VH with A100V
VL: B6 VL with D53N
B8: 3244_I10 (antibody, V domains shown)
VH: B6 VH
VL: B6 VL with S49F, D53N
B9: 3252_C13 (antibody, V domains shown)
VH: QVQLQESGPGLVKPSETLSLTCTVSGASISSDYWSWIRLPPGKGLEWIGYIYNRGSTKYTPSLKSRVTISLDTAENQFSLRLRSVTAADTAIYYCARHVGGHTYGIDYWGQGTLVTVSS
VL: DIQMTQSPSSLSASVGDRVTITCRASQSISNYLNWYQHKPGEAPKLLNYAASSLQSGVPSRFSASGSGTDFTLTISSLQPEDFATYYCQQSYNTPITFGQGTRLEIK
B10: 3255_J06 (antibody, V domains shown)
VH: B9 VH with I92V
VL: B9 VL with T74S, S77G, Q100P
B11: 3420_I23 (antibody, V domains shown)
VH: QVQLQESGPGLVKPSETLSVTCKVSGDSISSYSWSWIRQPPGKGLEWVGYLYYSGSTKYNPSLKSRTTISVDTSTNQLSLKLSFVTAADTAVYFCARTGSESTTGYGMDVWGQGTTVTVSS
VL: B9 VL with N31T, H38Q, E42K, N48I, Q55H, A64G, T72A, N93S, T94P
B12: 3362_B11 (antibody, V domains shown)
VH: QVQLQASGPGLVKPSETLSLTCTVSGDSITSGAYYWTWIRQHPGKGLEWIGYIYYSGNTYYNPSLKSRVTISLDTSKNQFSLKVNSVTAADTAVYYCARAASTSVLGYGMDVWGQGTTVTVSS
VL: B9 VL with N31R, H38Q, K39E, E42K, N48V, A64G, N93S, I96L
B13: 3248_P18 (antibody, V domains shown)
VH: QVQLQESGPGLVKPSETLSLTCTVSGGSISAYHWSWIRQPPGKGLEWIGHIFDSGSTYYNPSLKSRVTISLDASKNQLSLRLTSVTASDTAIYYCARPLGSRYYYGMDVWGQGTTVTVSS
VL: DIQMTQSPSSLSASVGDRVTITCRASQSISRYLNWYQQKPGKAPKLLIYGASTLQNGAPSRFSGSGSGTDFTLTISSLQPEDSATYLCQQSYSVPAFGGGTKVEVK
B14: 3259_J21 (antibody, V domains shown)
VH: QVQLQESGPRVVRPSETLSLTCTVSGGSISSYNWIWIRQPPGKGLEWIGHIYDYGRTFYNSSLQSRPTISVDASKNQLSLRLTSVTASDTAVYYCARPLGILHYYAMDLWGQGTTVTVSS
VL: DIQMTQSPLSVSVSVGDRVTIACRASQSIDKFLNWYQQKPGKAPKLLIYGASNLHSGAPSRFSASGSGTDFTLTITNIQTEDFATYLCQQSFSVPAFGGGTKVEIK
B15: 3260_D19 (antibody, V domains shown)
VH: DMQLVESGGGLVPPGGSLRLSCAASGFSVSDNYINWVRQAPGKGLDWVSVFYSADRTSYADSVKGRFTVSSHDSKNTVYLQMNSLRAEDTAVYYCARVQKSYYGMDVWGQGTTVTVSS
VL: GIQMTQSPSSLSASVGDRVTITCRASQSISRYLNWYLQKPGKAPKLLISGASSLQSGVPSRFSGTGSGTEFTLTISSLQPEDFATYYCQQTFSIPLFGQGTKVEIK
B16: 3242_P05 (antibody, V domains shown)
VH: B15 VH
VL: B15 VL
B17: 3241_G23 (antibody, V domains shown)
VH: QVQLQQSGPGLVKPSQTLSLTCTVSGGPVSGGGYSWNWIRQRPGQGLEWVGFMFHSGSPRYNPTLKSRITISVDTSKNLVSLKLSSVTAADTAVYFCARVGQMDKYYAMDVWGQGTTVTVSS
VL: DIQMTQSPSSLSSSVGDRVTITCRASQSIGAYVNWYQQKAGKAPQVLIFGASNLQSGVPSRFSGSGSGTDFTLTISSLQPEDFATYFCQQTYSTPITFGQGTRLEIK
B18: 3139_P23 (antibody, V domains shown)
VH: QVQLQESGPRLVKPSESLSLTCTVSGGSISNSFWGWIRQPPGEGLEWIGYVYNSGNTKYNPSLKSRVTISRDTSKSQLYMKLRSVTAADTAVYYCARHDDASHGYSISWGHGTLVTVSS
VL: DIQMTQSPSSLSASVGDRVTITCRASQTISTYLNWYQQKSGKAPKLLIYAASGLQSGVPSRFSGSGSGTDFTLTISSLQPEDFATYFCQQSYNTPLTFGQGTKVEIK

How the values were obtained:
[1] = biological target: influenza A/Puerto Rico/8/34 (PR8) virus particles (M2 protein on the virion) (influenza A virus H1N1 A/Puerto Rico/8/34) (UniProt P06821); assay: surface plasmon resonance, Fab fragment on influenza virus
[2] = biological target: influenza A/Puerto Rico/8/34 (PR8) virus particles (M2 protein on the virion) (influenza A virus H1N1 A/Puerto Rico/8/34) (UniProt P06821); assay: affinity of FAb fragments on whole PR8 virus
[3] = test system: H5N1 (A/Vietnam/1203/04); design: species or system balb/c mice; conditions: mouse, in vivo
[4] = test system: H5N1 (A/Vietnam/1203/04); design: species or system balb/c mice; conditions: mouse, in vivo; remark: listed apart in the source
[5] = biological target: M2 protein of influenza A/Hong Kong/483/1997 (H5N1), expressed on cells (influenza A virus H5N1 A/Hong Kong/483/97)
[6] = biological target: HVIR1; assay: peptide ELISA, mAb 5 µg/mL

| Molecule | MFI [5] | other results |
| --- | --- | --- |
| ch14C2 Fab fragment | – | Kd [1]: 4 µM; koff [1]: 0.0018 s⁻¹; kon [1]: 500 M⁻¹ s⁻¹; Kd [2]: 4 µM; koff [2]: 0.00286 s⁻¹; kon [2]: 500 M⁻¹ s⁻¹ |
| CCOC(=O)C1=C[C@@H](OC(CC)CC)[C@H](NC(C)=O)[C@@H](N)C1 [oseltamivir] | – | percentage of weight remaining [3]: completely protected; also recorded: retained more weight; survival rate [4]: extinction of the population prior to the end of the therapy |
| B1 | 963 MFI | – |
| B2 | 919 MFI | – |
| B3 | – | ELISA A450 [6]: 0.21 |
| B4 | 109 MFI | – |
| B5 | 754 MFI and 1080 MFI | ELISA A450 [6]: 0.11 |
| B6 | 43 MFI | – |
| B7 | 131 MFI | – |
| B8 | 434 MFI | – |
| B9 | 449 MFI | – |
| B10 | 442 MFI | – |
| B11 | 112 MFI | – |
| B12 | 218 MFI | – |
| B13 | 967 MFI | – |
| B14 | 1670 MFI | – |
| B15 | 846 MFI | – |
| B16 | 596 MFI | – |
| B17 | 1700 MFI | – |
| B18 | 110 MFI | – |
